The target in this experiment is MPER-TM2 (gp41 residues 630-711, containing the complete TM region) (HIV-1). Nature of the experiment: not stated; MPER-TM2 solubilized in a buffer containing β-D-octyl glucoside (β-OG); oligomeric state (Figure S5B).

Here are results for one substance from article PMC6854463.

In general, stoichiometry N refers to a count of units in the complex or per binding partner. “MPER-TM2 (gp41 residues 630-711, containing the complete TM region) (domain or fragment)” displayed a stoichiometry N of 3.
